Kd data for two substances are collected here from paper PMC5759264.

This assay concerns the target Recombinant human His-tagged CEACAM5 extracellular domain (human) (UniProt P06731). The assay is described as follows: BLI. (BLI is a label-free optical method that tracks binding on a fibre tip over time.)
Sequence of UniProt P06731 (P06731 35-702): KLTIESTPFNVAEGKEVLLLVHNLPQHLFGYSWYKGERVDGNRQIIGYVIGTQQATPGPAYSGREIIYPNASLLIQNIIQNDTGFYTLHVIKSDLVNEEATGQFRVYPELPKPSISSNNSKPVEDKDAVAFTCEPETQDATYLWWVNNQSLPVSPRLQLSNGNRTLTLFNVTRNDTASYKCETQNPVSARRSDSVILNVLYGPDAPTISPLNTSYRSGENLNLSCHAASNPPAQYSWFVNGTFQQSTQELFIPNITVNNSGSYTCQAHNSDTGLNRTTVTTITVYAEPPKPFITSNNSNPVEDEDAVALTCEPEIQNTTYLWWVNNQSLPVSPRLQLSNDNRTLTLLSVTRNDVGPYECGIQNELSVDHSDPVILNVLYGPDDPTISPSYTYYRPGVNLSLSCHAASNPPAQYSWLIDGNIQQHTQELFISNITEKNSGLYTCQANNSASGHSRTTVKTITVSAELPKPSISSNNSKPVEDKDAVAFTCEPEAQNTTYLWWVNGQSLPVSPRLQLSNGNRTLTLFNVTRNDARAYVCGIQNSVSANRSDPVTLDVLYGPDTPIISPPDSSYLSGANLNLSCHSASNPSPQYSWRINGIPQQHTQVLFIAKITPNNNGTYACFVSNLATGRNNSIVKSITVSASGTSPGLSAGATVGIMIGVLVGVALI

As to “common light chain IgG variant 4F02 (from UniProt P01624)”, the Kd (in general, the constant that tells how readily two partners part at equilibrium) worked out at 2.5 nM.
To “common light chain IgG variant 4G07 (from UniProt P01624)” belongs 0.6 nM.
